The record followed here is paper PMC11405395 (The EMBO Journal, 2024).

Numbering of substitutions follows the chain as printed. In names and notes the source's numbering stands.

Common to all, as to conditions: both partners purified
For experiment [1], the target named is T1, DNA polymerase ε (Pol2, Dpb2, Dpb3, Dpb4), S. cerevisiae (S. cerevisiae, UniProt P21951 1-2222; P24482 1-689; P27344 1-201; Q04603 1-196).
T1 construct: Pol2, catalytic subunit of DNA polymerase ε, S. cerevisiae; Dpb2, second largest subunit of DNA polymerase ε, S. cerevisiae; Dpb3, subunit of DNA polymerase ε, S. cerevisiae; Dpb4, subunit of DNA polymerase ε, S. cerevisiae (DPB4-TEV-CBP); also called Polε; Pol ε; source: S. cerevisiae strain yAJ2, purified as previously described (Yeeles et al, 2015); copies: + + +
Nature of the experiment: co-IP; purified proteins mixed: 10 nM FLAG-Rrm3 with 15 nM Pol ε, 10 min on ice; anti-FLAG M2 magnetic beads; 25 mM Hepes-KOH pH 7.6, 400 mM KOAc, 0.02% NP-40-S, 0.1 mg/mL BSA, 1 mM DTT, 10 mM Mg(OAc)2; immunoblotting. (In general: A western blot detects proteins with antibodies after separation by electrophoresis.)

For experiment [2], the target named is T2, GINS tetramer (Sld5, Psf1, Psf2, Psf3), S. cerevisiae (S. cerevisiae, UniProt Q03406 1-294; Q12488 1-208; P40359 1-213; Q12146 1-194).
T2 construct: Sld5, GINS subunit, S. cerevisiae; Psf1, GINS subunit, S. cerevisiae; Psf2, GINS subunit, S. cerevisiae; Psf3, GINS subunit, S. cerevisiae; pJL005 with TwinStrep-Psf3; also called tetrameric GINS complex; source: purified as previously described (Yeeles et al, 2015; Lewis et al, 2022); copies: + + +
T2 sequence (looked up) 1: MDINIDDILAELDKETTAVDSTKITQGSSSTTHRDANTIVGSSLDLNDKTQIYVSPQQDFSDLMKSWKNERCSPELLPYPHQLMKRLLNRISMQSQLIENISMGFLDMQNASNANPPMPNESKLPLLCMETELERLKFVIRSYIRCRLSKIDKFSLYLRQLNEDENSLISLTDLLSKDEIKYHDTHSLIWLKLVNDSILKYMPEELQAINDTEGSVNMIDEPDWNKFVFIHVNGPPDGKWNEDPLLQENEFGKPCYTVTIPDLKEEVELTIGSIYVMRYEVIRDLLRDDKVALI
T2 sequence (looked up) 2: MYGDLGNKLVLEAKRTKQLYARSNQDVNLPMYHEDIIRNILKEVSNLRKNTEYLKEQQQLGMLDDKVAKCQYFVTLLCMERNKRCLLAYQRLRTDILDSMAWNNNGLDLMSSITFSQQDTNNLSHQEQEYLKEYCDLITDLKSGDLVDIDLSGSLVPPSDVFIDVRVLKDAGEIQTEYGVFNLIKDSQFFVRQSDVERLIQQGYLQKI
T2 sequence (looked up) 3: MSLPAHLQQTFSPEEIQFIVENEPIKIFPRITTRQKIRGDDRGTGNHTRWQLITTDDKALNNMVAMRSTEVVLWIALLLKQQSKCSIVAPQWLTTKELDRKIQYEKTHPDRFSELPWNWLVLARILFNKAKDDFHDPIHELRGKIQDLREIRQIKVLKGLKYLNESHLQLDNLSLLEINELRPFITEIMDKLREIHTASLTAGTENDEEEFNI
T2 sequence (looked up) 4: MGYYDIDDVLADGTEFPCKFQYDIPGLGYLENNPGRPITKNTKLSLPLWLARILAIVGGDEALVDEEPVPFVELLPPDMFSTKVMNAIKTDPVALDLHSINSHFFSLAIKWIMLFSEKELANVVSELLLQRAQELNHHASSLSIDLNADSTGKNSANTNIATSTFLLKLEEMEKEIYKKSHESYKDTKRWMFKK
Briefly: co-IP; purified proteins mixed: 10 nM FLAG-Rrm3 with 15 nM GINS, 10 min on ice; anti-FLAG M2 magnetic beads; 25 mM Hepes-KOH pH 7.6, 200 mM KOAc, 0.02% NP-40-S, 0.1 mg/mL BSA, 1 mM DTT, 10 mM Mg(OAc)2; immunoblotting.

Experiment [3] deals with T3, Homo sapiens CMG helicase (CDC45-MCM2-7-GINS) (human, UniProt P49736 1-904; P25205 1-808; P33991 1-863; P33992 1-734; Q14566 1-821; P33993 …).
T3 construct: MCM2, human, subunit of CMG; MCM3, human, subunit of CMG; MCM4, human, subunit of CMG; MCM5, human, subunit of CMG; MCM6, human, subunit of CMG; MCM7, human, subunit of CMG; CDC45, human, subunit of CMG; SLD5 (GINS4), human, GINS subunit of CMG (PrA-3TEV-HsSld5; eluted from IgG Sepharose with TEV protease); PSF1 (GINS1), human, GINS subunit of CMG; PSF2 (GINS2), human, GINS subunit of CMG; PSF3 …
Nature of the experiment: co-IP; purified proteins mixed: 10 nM RTEL1-FLAG with 15 nM hsCMG, 10 min on ice; anti-FLAG M2 magnetic beads; 25 mM Hepes-KOH pH 7.6, 100 mM KOAc, 0.02% NP-40-S, 0.1 mg/mL BSA, 1 mM DTT, 10 mM Mg(OAc)2; immunoblotting.

T1 sequence (P21951 whole entry, chain 1 of 4): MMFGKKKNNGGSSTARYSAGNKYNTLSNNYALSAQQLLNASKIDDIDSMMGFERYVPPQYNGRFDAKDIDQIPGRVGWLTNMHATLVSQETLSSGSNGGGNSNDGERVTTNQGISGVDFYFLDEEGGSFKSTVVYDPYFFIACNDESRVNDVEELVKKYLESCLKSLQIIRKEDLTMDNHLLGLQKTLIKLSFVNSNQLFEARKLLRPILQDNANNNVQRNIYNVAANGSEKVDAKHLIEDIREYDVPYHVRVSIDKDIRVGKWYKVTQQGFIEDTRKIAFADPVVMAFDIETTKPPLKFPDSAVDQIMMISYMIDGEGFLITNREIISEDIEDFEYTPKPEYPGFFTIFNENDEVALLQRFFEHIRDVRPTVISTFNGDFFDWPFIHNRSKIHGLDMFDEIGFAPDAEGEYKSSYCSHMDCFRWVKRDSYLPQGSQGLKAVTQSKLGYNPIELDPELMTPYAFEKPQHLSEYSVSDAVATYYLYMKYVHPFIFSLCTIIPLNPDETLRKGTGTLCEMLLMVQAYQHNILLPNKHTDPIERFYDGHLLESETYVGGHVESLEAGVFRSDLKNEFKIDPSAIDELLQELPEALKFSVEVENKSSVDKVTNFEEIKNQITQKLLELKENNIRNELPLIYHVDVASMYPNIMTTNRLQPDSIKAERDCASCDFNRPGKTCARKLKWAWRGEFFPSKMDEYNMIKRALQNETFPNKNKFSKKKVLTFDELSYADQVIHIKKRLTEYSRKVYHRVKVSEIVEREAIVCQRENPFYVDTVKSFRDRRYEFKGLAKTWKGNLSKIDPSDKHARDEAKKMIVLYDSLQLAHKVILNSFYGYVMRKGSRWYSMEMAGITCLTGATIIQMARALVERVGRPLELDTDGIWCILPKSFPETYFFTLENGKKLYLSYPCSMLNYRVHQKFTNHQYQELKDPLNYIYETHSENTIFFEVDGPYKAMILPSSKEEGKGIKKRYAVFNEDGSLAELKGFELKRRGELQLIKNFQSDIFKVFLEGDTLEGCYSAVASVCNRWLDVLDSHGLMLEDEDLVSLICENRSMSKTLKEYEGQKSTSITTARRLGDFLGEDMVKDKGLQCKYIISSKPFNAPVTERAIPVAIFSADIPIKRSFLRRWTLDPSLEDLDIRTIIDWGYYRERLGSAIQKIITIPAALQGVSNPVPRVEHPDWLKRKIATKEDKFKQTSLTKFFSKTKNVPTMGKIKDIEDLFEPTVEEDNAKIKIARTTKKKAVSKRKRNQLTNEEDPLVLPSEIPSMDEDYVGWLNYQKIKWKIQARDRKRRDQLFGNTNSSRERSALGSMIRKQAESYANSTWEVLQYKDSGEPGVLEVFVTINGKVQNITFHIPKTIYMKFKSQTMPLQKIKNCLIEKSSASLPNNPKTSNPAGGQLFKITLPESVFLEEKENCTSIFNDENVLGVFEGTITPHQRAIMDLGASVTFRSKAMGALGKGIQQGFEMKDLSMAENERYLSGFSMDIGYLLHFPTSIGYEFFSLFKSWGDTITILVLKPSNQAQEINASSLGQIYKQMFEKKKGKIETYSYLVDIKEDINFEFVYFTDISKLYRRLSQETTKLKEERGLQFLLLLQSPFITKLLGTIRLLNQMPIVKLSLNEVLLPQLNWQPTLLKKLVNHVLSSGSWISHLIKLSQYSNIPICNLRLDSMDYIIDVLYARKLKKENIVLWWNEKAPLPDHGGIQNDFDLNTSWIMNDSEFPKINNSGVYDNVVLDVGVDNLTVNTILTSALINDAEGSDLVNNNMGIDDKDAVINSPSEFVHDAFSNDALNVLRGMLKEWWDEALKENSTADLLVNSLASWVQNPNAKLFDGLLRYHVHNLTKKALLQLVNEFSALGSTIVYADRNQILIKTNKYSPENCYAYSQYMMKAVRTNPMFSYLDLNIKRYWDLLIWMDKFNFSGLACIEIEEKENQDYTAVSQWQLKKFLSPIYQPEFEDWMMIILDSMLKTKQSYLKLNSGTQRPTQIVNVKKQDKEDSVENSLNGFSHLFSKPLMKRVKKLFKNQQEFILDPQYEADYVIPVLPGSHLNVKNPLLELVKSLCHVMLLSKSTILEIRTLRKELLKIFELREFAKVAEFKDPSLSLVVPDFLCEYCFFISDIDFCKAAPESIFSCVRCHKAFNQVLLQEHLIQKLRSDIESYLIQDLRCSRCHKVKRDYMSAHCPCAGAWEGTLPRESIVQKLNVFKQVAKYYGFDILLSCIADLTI
T1 sequence (P24482 whole entry, chain 2 of 4): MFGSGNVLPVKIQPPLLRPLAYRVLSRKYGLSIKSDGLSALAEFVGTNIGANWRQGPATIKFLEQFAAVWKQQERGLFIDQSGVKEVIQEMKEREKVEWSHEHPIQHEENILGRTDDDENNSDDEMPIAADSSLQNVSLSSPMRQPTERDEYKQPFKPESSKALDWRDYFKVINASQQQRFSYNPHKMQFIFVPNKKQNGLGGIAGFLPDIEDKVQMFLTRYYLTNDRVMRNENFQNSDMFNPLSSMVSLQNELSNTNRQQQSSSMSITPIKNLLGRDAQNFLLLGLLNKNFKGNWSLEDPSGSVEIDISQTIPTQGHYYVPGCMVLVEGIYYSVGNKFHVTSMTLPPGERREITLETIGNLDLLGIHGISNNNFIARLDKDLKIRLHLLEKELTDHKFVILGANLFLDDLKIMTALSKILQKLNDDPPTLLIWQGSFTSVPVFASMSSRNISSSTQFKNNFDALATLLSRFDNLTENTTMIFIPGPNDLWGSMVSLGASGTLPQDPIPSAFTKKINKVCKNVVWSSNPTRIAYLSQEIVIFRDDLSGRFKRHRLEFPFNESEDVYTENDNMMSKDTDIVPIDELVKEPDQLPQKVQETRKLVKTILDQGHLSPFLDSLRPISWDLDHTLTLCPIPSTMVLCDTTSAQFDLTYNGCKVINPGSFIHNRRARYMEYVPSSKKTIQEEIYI
T1 sequence (P27344 whole entry, chain 3 of 4): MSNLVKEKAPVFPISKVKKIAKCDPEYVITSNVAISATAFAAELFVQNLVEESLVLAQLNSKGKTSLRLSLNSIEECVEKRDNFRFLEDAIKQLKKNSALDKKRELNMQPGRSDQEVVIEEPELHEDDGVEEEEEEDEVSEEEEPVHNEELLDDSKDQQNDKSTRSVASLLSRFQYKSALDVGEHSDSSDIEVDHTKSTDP
T1 sequence (Q04603 whole entry, chain 4 of 4): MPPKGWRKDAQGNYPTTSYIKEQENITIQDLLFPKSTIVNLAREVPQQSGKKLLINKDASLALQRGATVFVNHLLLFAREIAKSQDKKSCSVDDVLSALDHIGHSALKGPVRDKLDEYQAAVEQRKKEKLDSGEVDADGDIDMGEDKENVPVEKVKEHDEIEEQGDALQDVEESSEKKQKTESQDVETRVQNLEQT

B1: Rrm3Δ111-130 (enzyme, S. cerevisiae, UniProt P38766 1-723, looked up)
chain: MFRSHASGNKKQWSKRSSNGSTPAASASGSHAYRQQTLSSFFMGCGKKSAAASKNSTTIIDLESGDEGNRNITAPPRPRLIRNNSSSLFSQSQGSFGDDDPDAEFKKLVDHKTASASTTQKTYHFDEDETLREVTSVKSNSRQLSFTSTINIEDSSMKLSTDSERPAKRSKPSMEFQGLKLTVPKKIKPLLRKTVSNMDSMNHRSASSPVVLTMEQERVVNLIVKKRTNVFYTGSAGTGKSVILQTIIRQLSSLYGKESIAITASTGLAAVTIGGSTLHKWSGIGIGNKTIDQLVKKIQSQKDLLAAWRYTKVLIIDEISMVDGNLLDKLEQIARRIRKNDDPFGGIQLVLTGDFFQLPPVAKKDEHNVVKFCFESEMWKRCIQKTILLTKVFRQQDNKLIDILNAIRYGELTVDIAKTIRNLNRDIDYADGIAPTELYATRREVELSNVKKLQSLPGDLYEFKAVDNAPERYQAILDSSLMVEKVVALKEDAQVMMLKNKPDVELVNGSLGKVLFFVTESLVVKMKEIYKIVDDEVVMDMRLVSRVIGNPLLKESKEFRQDLNARPLARLERLKILINYAVKISPHKEKFPYVRWTVGKNKYIHELMVPERFPIDIPRENVGLERTQIPLMLCWALSIHKAQGQTIQRLKVDLRRIFEAGQVYVALSRAVTMDTLQVLNFDPGKIRTNERVKDFYKRLETLK
notes: Plasmid pOO10; source: S. cerevisiae strain yOO5, purified (anti-FLAG M2 resin, HiTrap heparin); not shown: 3FLAG, N-terminal, kept
Consider B1, for which, in experiment [1], the binding result is reported as “binds”.

B2: Rrm3-6A (Rrm3 F89A, Q93A, F96A, D99A, E104A, L108A) (enzyme, S. cerevisiae, UniProt P38766 1-723, looked up)
chain: MFRSHASGNKKQWSKRSSNGSTPAASASGSHAYRQQTLSSFFMGCGKKSAAASKNSTTIIDLESGDEGNRNITAPPRPRLIRNNSSSLASQSAGSAGDADPDAAFKKAVDVPRLNSYKKSSRSLSMTSSLHKTASASTTQKTYHFDEDETLREVTSVKSNSRQLSFTSTINIEDSSMKLSTDSERPAKRSKPSMEFQGLKLTVPKKIKPLLRKTVSNMDSMNHRSASSPVVLTMEQERVVNLIVKKRTNVFYTGSAGTGKSVILQTIIRQLSSLYGKESIAITASTGLAAVTIGGSTLHKWSGIGIGNKTIDQLVKKIQSQKDLLAAWRYTKVLIIDEISMVDGNLLDKLEQIARRIRKNDDPFGGIQLVLTGDFFQLPPVAKKDEHNVVKFCFESEMWKRCIQKTILLTKVFRQQDNKLIDILNAIRYGELTVDIAKTIRNLNRDIDYADGIAPTELYATRREVELSNVKKLQSLPGDLYEFKAVDNAPERYQAILDSSLMVEKVVALKEDAQVMMLKNKPDVELVNGSLGKVLFFVTESLVVKMKEIYKIVDDEVVMDMRLVSRVIGNPLLKESKEFRQDLNARPLARLERLKILINYAVKISPHKEKFPYVRWTVGKNKYIHELMVPERFPIDIPRENVGLERTQIPLMLCWALSIHKAQGQTIQRLKVDLRRIFEAGQVYVALSRAVTMDTLQVLNFDPGKIRTNERVKDFYKRLETLK
notes: Plasmid pOO16; also called 3FLAG-TEV-RRM3-6A; source: S. cerevisiae strain yOO8, purified (anti-FLAG M2 resin, HiTrap heparin); not shown: 3FLAG, N-terminal, kept
B2: the binding result in experiment [2] is “binds”.

B3: Rrm3-CR (Rrm3 F89D, Q93A, F96K, D99K, E104K) (enzyme, S. cerevisiae, UniProt P38766 1-723, looked up)
chain: B2 chain with A89D, A96K, A99K, A104K, A108L
notes: Plasmid pOO15; also called 3FLAG-TEV-RRM3-CR; source: S. cerevisiae strain yOO9, purified (anti-FLAG M2 resin, HiTrap heparin); not shown: 3FLAG, N-terminal, kept
For the molecule B3, the binding result in experiment [2] was “binds”.

B4: Rrm3Δ86-110 (enzyme, S. cerevisiae, UniProt P38766 1-723, looked up)
chain: MFRSHASGNKKQWSKRSSNGSTPAASASGSHAYRQQTLSSFFMGCGKKSAAASKNSTTIIDLESGDEGNRNITAPPRPRLIRNNSVPRLNSYKKSSRSLSMTSSLHKTASASTTQKTYHFDEDETLREVTSVKSNSRQLSFTSTINIEDSSMKLSTDSERPAKRSKPSMEFQGLKLTVPKKIKPLLRKTVSNMDSMNHRSASSPVVLTMEQERVVNLIVKKRTNVFYTGSAGTGKSVILQTIIRQLSSLYGKESIAITASTGLAAVTIGGSTLHKWSGIGIGNKTIDQLVKKIQSQKDLLAAWRYTKVLIIDEISMVDGNLLDKLEQIARRIRKNDDPFGGIQLVLTGDFFQLPPVAKKDEHNVVKFCFESEMWKRCIQKTILLTKVFRQQDNKLIDILNAIRYGELTVDIAKTIRNLNRDIDYADGIAPTELYATRREVELSNVKKLQSLPGDLYEFKAVDNAPERYQAILDSSLMVEKVVALKEDAQVMMLKNKPDVELVNGSLGKVLFFVTESLVVKMKEIYKIVDDEVVMDMRLVSRVIGNPLLKESKEFRQDLNARPLARLERLKILINYAVKISPHKEKFPYVRWTVGKNKYIHELMVPERFPIDIPRENVGLERTQIPLMLCWALSIHKAQGQTIQRLKVDLRRIFEAGQVYVALSRAVTMDTLQVLNFDPGKIRTNERVKDFYKRLETLK
notes: Plasmid pOO14; also called 3FLAG-TEV RRM3-∆86-110; source: S. cerevisiae strain yOO7, purified (anti-FLAG M2 resin, HiTrap heparin); not shown: 3FLAG, N-terminal, kept
Regarding B4, the binding result in experiment [2] is recorded as “binds”.

B5: Homo sapiens RTEL1 (wild-type, FLAG-tagged) (enzyme, human, UniProt Q9NZ71-1 1-1219, looked up)
chain: MPKIVLNGVTVDFPFQPYKCQQEYMTKVLECLQQKVNGILESPTGTGKTLCLLCTTLAWREHLRDGISARKIAERAQGELFPDRALSSWGNAAAAAGDPIACYTDIPKIIYASRTHSQLTQVINELRNTSYRPKVCVLGSREQLCIHPEVKKQESNHLQIHLCRKKVASRSCHFYNNVEEKSLEQELASPILDIEDLVKSGSKHRVCPYYLSRNLKQQADIIFMPYNYLLDAKSRRAHNIDLKGTVVIFDEAHNVEKMCEESASFDLTPHDLASGLDVIDQVLEEQTKAAQQGEPHPEFSADSPSPGLNMELEDIAKLKMILLRLEGAIDAVELPGDDSGVTKPGSYIFELFAEAQITFQTKGCILDSLDQIIQHLAGRAGVFTNTAGLQKLADIIQIVFSVDPSEGSPGSPAGLGALQSYKVHIHPDAGHRRTAQRSDAWSTTAARKRGKVLSYWCFSPGHSMHELVRQGVRSLILTSGTLAPVSSFALEMQIPFPVCLENPHIIDKHQIWVGVVPRGPDGAQLSSAFDRRFSEECLSSLGKALGNIARVVPYGLLIFFPSYPVMEKSLEFWRARDLARKMEALKPLFVEPRSKGSFSETISAYYARVAAPGSTGATFLAVCRGKASEGLDFSDTNGRGVIVTGLPYPPRMDPRVVLKMQFLDEMKGQGGAGGQFLSGQEWYRQQASRAVNQAIGRVIRHRQDYGAVFLCDHRFAFADARAQLPSWVRPHVRVYDNFGHVIRDVAQFFRVAERTMPAPAPRATAPSVRGEDAVSEAKSPGPFFSTRKAKSLDLHVPSLKQRSSGSPAAGDPESSLCVEYEQEPVPARQRPRGLLAALEHSEQRAGSPGEEQAHSCSTLSLLSEKRPAEEPRGGRKKIRLVSHPEEPVAGAQTDRAKLFMVAVKQELSQANFATFTQALQDYKGSDDFAALAACLGPLFAEDPKKHNLLQGFYQFVRPHHKQQFEEVCIQLTGRGCGYRPEHSIPRRQRAQPVLDPTGRTAPDPKLTVSTAAAQQLDPQEHLNQGRPHLSPRPPPTGDPGSQPQWGSGVPRAGKQGQHAVSAYLADARRALGSAGCSQLLAALTAYKQDDDLDKVLAVLAALTTAKPEDFPLLHRFSMFVRPHHKQRFSQTCTDLTGRPYPGMEPPGPQEERLAVPPVLTHRAPQPGPSRSEKTGKTQSKISSFLRQRPAGTVGAGGEDAGPSQSSGPPHGPAASEWGL
notes: RTEL1, human; the models and residue numbers are of isoform 1 (NP_057518.1), printed to residue 1219; Plasmid pTD195; The isoform is printed for the AlphaFold models; the deletion mutants use the same numbering; also called hsRTEL1; RTEL1-2FLAG; source: S. cerevisiae strain yOO1, purified (anti-FLAG M2 resin, HiLoad Superdex 200); not shown: 2XFLAG, C-terminal, kept
With B5, the binding result in experiment [3] is given as “binds”.
